Data: patent US20220033460A1, “IDENTIFICATION AND USE OF T CELL EPITOPES IN DESIGNING DIAGNOSTIC AND THERAPEUTIC APPROACHES FOR COVID-19” (priority 2020, published 2022)
Read-outs that look alike come from different tables or passages of the source.

Legend:
DRB1*07:01 [1] = settings: modification not given
DRB1*15:01 [2] = settings: modification not given
DRB1*07:01 [3] = settings: modification not given; remark: listed apart in the source
DRB1*15:01 [4] = settings: modification not given; remark: listed apart in the source
DRB1*07:01 [5] = settings: modification not given; remark: listed apart in the source
DRB1*15:01 [6] = settings: modification not given; remark: listed apart in the source
DRB1*07:01 [7] = settings: modification not given; remark: listed apart in the source
DRB1*15:01 [8] = settings: modification not given; remark: listed apart in the source
DRB1*07:01 [9] = settings: modification not given; remark: listed apart in the source
DRB1*15:01 [10] = settings: modification not given; remark: listed apart in the source
DRB1*07:01 [11] = settings: modification not given; remark: listed apart in the source
DRB01*11:01 [12] = settings: chains peptide; modification not given
DRB01*04:04 [13] = settings: chains peptide; modification not given
DRB01*07:01 [14] = settings: chains peptide; modification not given
DRB01*15:01 [15] = settings: chains peptide; modification not given
DRB1*07:01 [16] = settings: modification not given; remark: listed apart in the source
DRB1*15:01 [17] = settings: modification not given; remark: listed apart in the source
DRB1*07:01 [18] = settings: modification not given; remark: listed apart in the source
DRB1*15:01 [19] = settings: modification not given; remark: listed apart in the source
DRB1*07:01 [20] = settings: modification not given; remark: listed apart in the source
DRB1*15:01 [21] = settings: modification not given; remark: listed apart in the source
DRB1*15:01 [22] = settings: modification not given; remark: listed apart in the source
DRB1*07:01 [23] = settings: modification not given; remark: listed apart in the source
DRB1*15:01 [24] = settings: modification not given; remark: listed apart in the source
DRB1*07:01 [25] = settings: modification not given; remark: listed apart in the source
DRB1*15:01 [26] = settings: modification not given; remark: listed apart in the source
DRB01*15:01 [27] = settings: modification not given
DRB01*11:01 [28] = settings: modification not given
DRB01*04:04 [29] = settings: modification not given
DRB01*07:01 [30] = settings: modification not given
DRB1*07:01 [31] = settings: modification not given; remark: listed apart in the source
DRB1*15:01 [32] = settings: modification not given; remark: listed apart in the source
DRB1*07:01 [33] = settings: modification not given; remark: listed apart in the source
DRB1*15:01 [34] = settings: modification not given; remark: listed apart in the source
DRB1*07:01 [35] = settings: modification not given; remark: listed apart in the source
DRB1*07:01 [36] = settings: modification not given; remark: listed apart in the source
[37] = target: SARS-CoV-2 peptide on HLA-A*24:02 (human); test: barcoded tetramer library on ex vivo CD8+ T cells, single-cell sequencing; T cell clone or line; settings: chains Valpha:Vbeta

GVYFASTEKSNIIRG [… (position 89)] was tested, and the IC50 (DRB1*07:01 [1]) was 99 nM and the IC50 (DRB1*15:01 [2]) was 15500 nM.

For PFAMQMAYRFNGIGV [… (position 897)], the IC50 (DRB1*07:01 [3]) was 158 nM.

Work on KLPDDFTGCVIAWNS [… (position 424)] yielded an IC50 (DRB1*15:01 [4]) of 2060 nM.

With NSPRRARSVASQSII [… (position 679)] the IC50 (DRB1*07:01 [5]) was 206 nM and the IC50 (DRB1*15:01 [6]) was 25500 nM.

TWRVYSTGSNVFQTR [… (position 632)] gave an IC50 (DRB1*07:01 [7]) of 220 nM and an IC50 (DRB1*15:01 [8]) of 1950 nM.

TVEKGIYQTSNFRVQ [… (position 307)] showed an IC50 (DRB1*07:01 [9]) of 316 nM and an IC50 (DRB1*15:01 [10]) of 378 nM.

In the case of PAYTNSFTRGVYYPD [… (position 26)], the IC50 (DRB1*07:01 [11]) is reported as 153 nM.

For RGHLRIAGHHLGRCDIKDLPKEI [SEQ ID NO 307], the IC50 (DRB01*11:01 [12]) was 561 nM, the IC50 (DRB01*04:04 [13]) was 1730 nM and the IC50 (DRB01*07:01 [14]) was 10200 nM. For the same binder, the IC50 (DRB01*15:01 [15]) was 5090 nM.

PLVSSQCVNLTTRTQ [… (position 9)] showed an IC50 (DRB1*07:01 [16]) of 838 nM.

In the case of TSVDCTMYICGDSTE [… (position 734)], the IC50 (DRB1*15:01 [17]) is reported as 36700 nM.

For TFEYVSQPFLMDLEG [… (position 167)], the IC50 (DRB1*07:01 [18]) was 442 nM and the IC50 (DRB1*15:01 [19]) was 7660 nM.

KKFLPFQQFGRDIAD [… (position 557)] gave an IC50 (DRB1*07:01 [20]) of 1630 nM and an IC50 (DRB1*15:01 [21]) of 6440 nM.

Binder PLSETKCTLKSFTVE [… (position 295)] has an IC50 (DRB1*15:01 [22]) of 15500 nM.

NFRVQPTESIVRFPN [… (position 317)] showed an IC50 (DRB1*07:01 [23]) of 1620 nM and an IC50 (DRB1*15:01 [24]) of 1020 nM.

Binder DSLSSTASALGKLQD [… (position 936)] has an IC50 (DRB1*07:01 [25]) of 1020 nM and an IC50 (DRB1*15:01 [26]) of 10900 nM.

TLLALHRSYLTPGDS gave an IC50 (DRB01*15:01 [27]) of 257 nM.

Binder PKYVKQNTLKLAT has an IC50 (DRB01*11:01 [28]) of 257 nM, an IC50 (DRB01*04:04 [29]) of 5310 nM and an IC50 (DRB01*07:01 [30]) of 2320 nM.

In the case of TLLALHRSYLTPGDS [… (position 240)], the IC50 (DRB1*07:01 [31]) is reported as 298 nM.

QKFNGLTVLPPLLTD [… (position 853)] showed an IC50 (DRB1*15:01 [32]) of 1710 nM.

For FRSSVLHSTQDLFLP [… (position 43)], the IC50 (DRB1*07:01 [33]) was 85 nM and the IC50 (DRB1*15:01 [34]) was 5570 nM.

Binder ASQSIIAYTMSLGAE [… (position 688)] has an IC50 (DRB1*07:01 [35]) of 124 nM.

Work on NVVIKVCEFQFCNDP [… (position 125)] yielded an IC50 (DRB1*07:01 [36]) of 6610 nM.

B1: TCR_76 (protein)
chain 1: QQQVKQSPQSLIVQKGGISIINCAYENTAFDYFPWYQQFPGKGPALLIAIRPDVSEKKEGRFTISFNKSAKQFSLHIMDSQPGDSATYFCAASNRGGSEKLVFGKGTKLTVNP
chain 2: NAGVTQTPKFQVLKTGQSMTLQCAQDMNHEYMSWYRQDPGMGLRLIHYSVGAGITDQGEVPNGYNVSRSTTEDFPLRLLSAAPSQTSVYFCASSYHAGDRGFGYTFGSGTRLTVV
B1 showed a No. of Cells [37] of 2 cells.

B2: TCR_101 (protein)
chain 1: EDQVTQSPEALRLQEGESSSLNCSYTVSGLRGLFWYRQDPGKGPEFLFTLYSAGEEKEKERLKATLTKKESFLHITAPKPEDSATYLCAVHLNDYKLSFGAGTTVTVRA
chain 2: NAGVMQNPRHLVRRRGQEARLRCSPVKGHSHVYWYRQLPEEGLKFMVYLQKENIIDESGMPKERFSAEFPKEGPSILRIQQVVRGDSAAYFCASSRPSGQGNNGYTFGSGTRLTVV
B2 gave a No. of Cells [37] of 2 cells.

B3: TCR_109 (protein)
chain 1: AQKITQTQPGMFVQEKEAVTLDCTYDTSDQSYGLFWYKQPSSGEMIFLIYQGSYDEQNATEGRYSLNFQKARKSANLVISASQLGDSAMYFCAMRDSNSNSGYALNFGKGTSLLVTP
chain 2: DAEITQSPRHKITETGRQVTLACHQTWNHNNMFWYRQDLGHGLRLIHYSYGVQDTNKGEVSDGYSVSRSNTEDLPLTLESAASSQTSVYFCASSDGHQGLQETQYFGPGTRLLVL
B3 gave a No. of Cells [37] of 2 cells.
